Experimental findings from patent publication US20030138403A1 are described below.

The target of this assay is interferon gamma receptors on HeLa cells (UniProt P15260). Briefly: cell-based or functional assay.
Chain of UniProt P15260 (P15260 18-489 limits assumed): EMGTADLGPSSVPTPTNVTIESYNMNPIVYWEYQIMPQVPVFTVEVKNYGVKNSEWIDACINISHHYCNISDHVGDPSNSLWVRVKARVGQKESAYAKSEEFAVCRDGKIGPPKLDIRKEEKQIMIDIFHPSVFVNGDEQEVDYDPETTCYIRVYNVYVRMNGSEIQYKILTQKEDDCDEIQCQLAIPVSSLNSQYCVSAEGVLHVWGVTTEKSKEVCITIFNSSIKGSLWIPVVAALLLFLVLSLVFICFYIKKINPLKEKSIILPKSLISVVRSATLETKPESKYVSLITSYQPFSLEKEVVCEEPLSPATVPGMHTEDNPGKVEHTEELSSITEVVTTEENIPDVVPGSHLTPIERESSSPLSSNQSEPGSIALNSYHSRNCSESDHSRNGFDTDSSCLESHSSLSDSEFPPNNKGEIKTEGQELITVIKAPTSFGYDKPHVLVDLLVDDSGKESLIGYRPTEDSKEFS

“interferon gamma E38N+S40T+S99T variant (full-length, expressed from pIGY-54 in CHO K1 cells) (from UniProt P01579 24-161) (ligand)”: the interferon gamma activity, Primary Assay (ISRE-luciferase reporter in HeLa cells), culture medium 24 h after transfection came to 1.3e+07 AU/ml.
The substance “interferon gamma S99T variant (full-length, expressed from pIGY-48 in CHO K1 cells) (from UniProt P01579 24-161) (ligand)” registered an interferon gamma activity, Primary Assay (ISRE-luciferase reporter in HeLa cells), culture medium 24 h after transfection of 5.1e+06 AU/ml.
For the substance “interferon gamma variant N59C+S99T (full-length) PEGylated with mPEG-MAL (5 kDa) (from UniProt P01579 24-161) (ligand)”, the specific activity as percent of the corresponding non-PEGylated interferon gamma variant, Primary Assay came to 15% and the specific activity, Primary Assay (ISRE-luciferase reporter in HeLa cells) is 2.4e+06 AU/mg.
In the same order, the values of “interferon gamma variant N16C+S99T (full-length) PEGylated with mPEG-OPSS (10 kDa) (from UniProt P01579 24-161) (ligand)” are 15% and 1.3e+06 AU/mg.
